Measurements published in paper PMC12831531 (Cell reports, 2025).
Like-named read-outs stand apart in the source and are kept apart here.

Tests used:
[1] = target: vFcγR on AD169-infected MRC5 cells (Figure 1C); experiment: flow cytometry on cells
[2] = target: biotinylated human FcRn (human) (UniProt P55899); experiment: BLI; Octet RED96e; biotinylated FcRn on streptavidin biosensors; hu4D5 Fc variants 1000–31.2 nM; PBS pH 6.0, 0.02% Tween 20, room temperature; steady state
[3] = target: t-gp68 (truncated gp68 ectodomain, soluble) (HCMV AD169); experiment: SPR; BIAcore X100; t-gp68-twin strep-FLAG captured (40 RU) on anti-strep Fab; hu4D5 IgG1 Fc variants injected; 2:1 binding kinetics (first constants only) and steady state analysis
[4] = target: hu4D5 human IgG1 antibody with Fc variant G5 (human); experiment: BLI; Octet RED96e; hu4D5 IgG1 variants on CH1-binding (FAB2G) biosensors; CD16A F158 5000–156.25 nM, V158 2000–62.5 nM; room temperature, PBS pH 7.4, 0.02% Tween 20, 0.1% BSA; steady state
[5] = target: hu4D5 human IgG1 antibody with wild-type Fc (human); experiment: as above
[6] = target: hu4D5 human IgG1 antibody with Fc variant G2 (human); experiment: as above
[7] = target: human IgG1 Fc (wild type, without Fab arms) (human); experiment: negative-stain electron microscopy; purified Fc, gp34-M and t-gp68 combined in various ratios, complexes purified by SEC; 2 mM Tris pH 8.0, 200 mM NaCl; uranyl acetate
[8] = target: human IgG1 Fc (wild type, without Fab arms) (human); experiment: SPR; BIAcore X100; 200 RU human IgG1 Fc immobilised on CM5; t-gp68-strep-FLAG injected 250–3 nM; 1:1 binding kinetics
[9] = target: human IgG1 Fc (wild type, without Fab arms) (human); experiment: as above; remark: listed apart in the source
[10] = target: HCMV glycoprotein B (gB) on the surface of infected fibroblasts (Human cytomegalovirus AD169, UniProt P06473, strain); experiment: flow cytometry on cells; antibody on AD169-, Δ3- or mock-infected MRC5 fibroblasts, on ice; extracellular antibody detected with goat anti-human Fcγ AF647 (anti-mouse Fcγ for SM5–1-mFc); conditions: one partner purified

biotinylated human FcRn (human), sequence (P55899 24-297, chain 1 of 2): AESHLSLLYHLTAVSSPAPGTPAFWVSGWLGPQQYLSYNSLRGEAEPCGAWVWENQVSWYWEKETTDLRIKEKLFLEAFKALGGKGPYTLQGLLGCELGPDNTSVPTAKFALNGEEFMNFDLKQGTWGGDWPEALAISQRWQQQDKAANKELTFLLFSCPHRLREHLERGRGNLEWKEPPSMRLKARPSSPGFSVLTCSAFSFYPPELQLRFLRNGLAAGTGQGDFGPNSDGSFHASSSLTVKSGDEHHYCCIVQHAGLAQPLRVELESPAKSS
biotinylated human FcRn (human), sequence (P61769 21-119, chain 2 of 2, further chain): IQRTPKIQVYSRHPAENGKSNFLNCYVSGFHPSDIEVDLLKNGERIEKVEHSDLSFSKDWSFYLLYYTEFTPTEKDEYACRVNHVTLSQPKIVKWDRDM

With isotype control 2B1 human IgG1 antibody the percent of cells positive for extracellular antibody [1] was 30 % cells.

“hu4D5 human IgG1 antibody with wild-type Fc” gave a Kd [2] of 50 nM, a Kd [3] of 80 nM and a ka1 (first step of a 2:1 fit) [3] of 65000 M⁻¹ s⁻¹. For the same molecule, the kd1 (first step of a 2:1 fit) [3] was 0.004 s⁻¹ and the kinetic KD from ka1 and kd1 of a 2:1 fit [3] was 69 nM.

Molecule “human CD16A F158 (from UniProt P08637 17-208) (receptor)” has a Kd [4] of 990 nM, a Kd [5] of 1160 nM and a Kd [6] of 360 nM.

In the case of “t-gp68 (truncated gp68 ectodomain, soluble) (domain or fragment)”, the stoichiometry N [7] is reported as 2, the Kd [8] is reported as 110 nM and the koff [8] is reported as 0.005 s⁻¹. It also gave a kon [8] of 40000 M⁻¹ s⁻¹ and a koff [9] of 0.004 s⁻¹.

B1: SM5–1 human IgG1 antibody with wild-type Fc (antibody, V domains shown)
VH: QVQLVQSGAEVRKPGASVKVSCKASGYSLKDHYMVWVRQAPGQGLEWMGWINPQSGGTGYGQKFQGRVTMTRDTSTNTAYMILSSLRSDDTAVYFCARDGAKTVSNSGLSLLYYHNRLDAWGQGTMVTVSS
VL: QSVLTQPPSVSAAPGQMVTISCSGSSSNIGKNYVSWYQQLPGAAPKLLIFDNNKRPSGTPDRFSGSKSGTSATLVITGLQTGDEADYYCGTPDRSLSVIFGGGTKVTVL
notes: also called SM5–1 WT; human SM5–1; source: ExpiCHO, purified (Protein A)
With B1 the “percent of cells positive for extracellular antibody” value (“percent of cells positive” below) [10] was roughly 70%.

B2: SM5–1 human IgG1 antibody with Fc variant G5 (antibody, V domains shown)
VH: QVQLVQSGAEVRKPGASVKVSCKASGYSLKDHYMVWVRQAPGQGLEWMGWINPQSGGTGYGQKFQGRVTMTRDTSTNTAYMILSSLRSDDTAVYFCARDGAKTVSNSGLSLLYYHNRLDAWGQGTMVTVSS
VL: QSVLTQPPSVSAAPGQMVTISCSGSSSNIGKNYVSWYQQLPGAAPKLLIFDNNKRPSGTPDRFSGSKSGTSATLVITGLQTGDEADYYCGTPDRSLSVIFGGGTKVTVL
notes: IgG1; also called SM5–1 with G5; source: ExpiCHO, purified (Protein A)
With B2 the “percent of cells positive” value [10] was roughly 70%.

B3: SM5–1 human IgG1 antibody with Fc variant G2 (antibody, V domains shown)
VH: QVQLVQSGAEVRKPGASVKVSCKASGYSLKDHYMVWVRQAPGQGLEWMGWINPQSGGTGYGQKFQGRVTMTRDTSTNTAYMILSSLRSDDTAVYFCARDGAKTVSNSGLSLLYYHNRLDAWGQGTMVTVSS
VL: QSVLTQPPSVSAAPGQMVTISCSGSSSNIGKNYVSWYQQLPGAAPKLLIFDNNKRPSGTPDRFSGSKSGTSATLVITGLQTGDEADYYCGTPDRSLSVIFGGGTKVTVL
notes: IgG1; also called SM5–1 with G2; source: ExpiCHO, purified (Protein A)
For B3, the “percent of cells positive” value [10] was roughly 70%.
